The values that follow come from PMC7168753 (Science (New York, N.Y.), 2019).

In general, Kd refers to a measure of binding affinity in units of concentration. Low readings indicate tighter binding, high ones weaker binding.

The experiment has as its target CH848 10.17DT stabilized SOSIP gp140 Env trimer (HIV-1). The experiment in a line: SPR. In general terms: In SPR one partner is held on a chip, and binding of the other changes the refractive index at the surface.

B1: DH270 UCA with the improbable G57R mutation (antibody, V domains shown)
VH: not shown
VL: QSALTQPASVSGSPGQSITISCTGTSSDVGSYNLVSWYQQHPGKAPKLMIYEVSKRPSGVSNRFSGSKSGNTASLTISGLQAEDEADYYCCSYAGSSTVIFGGGTKLTVL
In turn, B1 yielded a Kd of 132 nM.

B2: DH270 UCA (antibody, format not stated in the text) (antibody, V domains shown)
VH: not shown
VL: QSALTQPASVSGSPGQSITISCTGTSSDVGSYNLVSWYQQHPGKAPKLMIYEVSKRPSGVSNRFSGSKSGNTASLTISGLQAEDEADYYCCSYAGSSTVIFGGGTKLTVL
The molecule B2 had a Kd of 558 nM.
